Experiment [1] deals with T1, Control-2 (C2), a laFc-containing fusion protein.
T1 construct: Negative panning and ELISA control
Description: phage supernatant ELISA, coated control protein, anti-HA HRP, A450-A650.

In experiment [2] the target is T2, Control-1 (C1), a muFc-containing fusion protein.
T2 construct: Negative panning and ELISA control
Described as above.

Experiment [3] addresses T3, GIPR-ECD-laFc (an alpaca Fc-fused human GIPR extracellular region fragment) (human, UniProt P48546 22-138).
T3 construct: extracellular domain; not shown: alpaca Fc
T3 sequence (looked up): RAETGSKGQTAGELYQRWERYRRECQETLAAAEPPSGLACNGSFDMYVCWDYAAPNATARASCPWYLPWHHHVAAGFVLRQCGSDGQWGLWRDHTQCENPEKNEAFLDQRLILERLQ
Description: phage supernatant ELISA, coated antigen, anti-HA HRP, A450-A650.

Experiment [4] addresses T4, human GIPR expressed on HEK293T cells (human, UniProt P48546 22-466).
T4 sequence (looked up): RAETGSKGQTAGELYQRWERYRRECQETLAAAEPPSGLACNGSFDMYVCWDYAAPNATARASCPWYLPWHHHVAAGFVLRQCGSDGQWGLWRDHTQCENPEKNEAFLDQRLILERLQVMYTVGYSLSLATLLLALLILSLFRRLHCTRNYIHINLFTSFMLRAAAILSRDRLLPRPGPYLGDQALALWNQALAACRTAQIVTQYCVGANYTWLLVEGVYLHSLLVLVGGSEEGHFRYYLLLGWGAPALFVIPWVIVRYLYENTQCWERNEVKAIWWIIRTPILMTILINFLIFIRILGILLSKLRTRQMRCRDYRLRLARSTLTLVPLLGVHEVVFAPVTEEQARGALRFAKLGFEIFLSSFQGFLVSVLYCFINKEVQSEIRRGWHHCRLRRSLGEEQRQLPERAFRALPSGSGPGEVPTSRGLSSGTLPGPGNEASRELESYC
Briefly: cell-based or functional assay.

Experiment [5] deals with T4, human GIPR expressed on HEK293T cells. Briefly: cell binding on 293T-GIPR cells, anti-human SULFO-TAG secondary antibody, MSD read-out plotted as MFI.
The target in experiment [6] is T5, GIPR-ECD-chis (a his tag-fused human GIPR extracellular region fragment) (human, UniProt P48546 22-138, limits assumed).
T5 construct: extracellular domain; not shown: his tag
T5 sequence (looked up): T3 sequence (looked up)
Description: BLI, antibody on AHC sensor, GIPR-ECD-chis in solution.

B1: iGI-27 (VHH)
VHH: QVQLVESGGALVQTGGSLRLFCAASGDTICITNMNWYRQAPGKGREFVAAITRSGRTLYADYVKGRFTISRDNARNTMSLQMNSMTSEDTAVYYCNADQNQTICAAEPSAWGRGTQVTVSS
notes: Tested as supernatant of a helper-phage-rescued clone (pComb3XSS), detected by anti-HA tag
As to B1, the OD value amounted to 0.023 OD in experiment [1], 0.018 OD in experiment [2] and 2.23 OD in experiment [3].

B2: iGI-9 (VHH)
VHH: QVQLVESGGGLVQPGGSLRLSCETSKILFSSAYTMGWYRQAPGKQRELVATITTDYITNYVDSVKGRFTISRDNAKNTVYLQMNTLKLEDTAVYYCNARWGRDYWGQGTQVTVSS
notes: as for B1
In the case of B2, the OD value in experiment [1] is 0.028 OD; in experiment [2], 0.018 OD; in experiment [3], 2.21 OD.

B3: iGI-72 (VHH)
VHH: QVQLVESGGGLVQPGGSLRLSCAASRYTLDYYAIGWFRQAPGKEREGVSCINSKDGSTYYADSVKGRFTISKDNAKNTVYLQMNSLKPEDTAVYYCAAGYDPWSGIPPVQAMCVMGYDYWGQGTQVTVSS
notes: as for B1
In the case of B3, the OD value turned out to be 0.077 OD in experiment [1], 0.019 OD in experiment [2] and 2.2 OD in experiment [3].

B4: Maridebart (antibody, V domains shown)
VH: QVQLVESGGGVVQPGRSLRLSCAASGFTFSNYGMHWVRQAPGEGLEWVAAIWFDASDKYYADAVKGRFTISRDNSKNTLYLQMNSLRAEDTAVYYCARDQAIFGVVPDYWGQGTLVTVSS
VL: EIVMTQSPATLSVSPGERATLSCRASQSVSSNLAWYQQKPGQAPRLLIYGAATRATGIPARVSGSGSGTEFTLTISSLQSEDFAVYYCQQYNNWPLTFGGGTKVEIK
B4: the “EC50 of the inhibition rate (%) of GIP-induced cAMP expression in 293T-GIPR cells” value in experiment [4] came to 0.351 µg/mL. Also, the EC50 in experiment [5] is 1.18 nM. In experiment [6], this molecule registered a Kd of 16.3 nM, a koff of 0.00222 s⁻¹ and a kon of 136000 M⁻¹ s⁻¹.

B5: iGI-51 (VHH)
VHH: QVQLVESGGKLVQAGGSLRLDCVASGRTFSYYAIGWYRQAPGKEREFVAAIRASGGSTYYADSVKGRFTASRDNAKNTGYLQMNSLKPEDTAVYFCYAATIVPITPSTHGYWGQGTQVTVSS
notes: as for B1
Take B5: the OD value in experiment [1] was determined as 0.027 OD; in experiment [2], 0.042 OD; in experiment [3] it was 2.17 OD.

B6: iGI-1198 (VHH)
VHH: QVQLQESGGGLVQPGGSLRLSCVASGSGFSIVAMGWYRQTPGKQRELVAAITSGGNTNYADSVKGRFTISRDNAKNTIYLQMNSLKPEDTAVYYCNADPGVVAGPYAGMDFWGKGTQVTVSS
notes: as for B1
Take B6: the OD value stood at 0.027 OD in experiment [1] and 1.95 OD in experiment [3].

B7: iGI-44 (VHH)
VHH: QVQLVESGGGLVQAGGSLKLSCAASGRTFSSKAMGWFRQAPGKEREFVAAINWSGDRTYHVNSIKGRFTISRDNAKNTVYLQMNSLKPEDTAVYYCTADRRDRATIPFQWHYWGQGTQVTVSS
notes: as for B1
For B7, the OD value in experiment [1] is 0.023 OD; in experiment [2], 0.018 OD; in experiment [3] it was 2.31 OD.
